Consider eight molecules from patent US20250346659A1 (ELASMOGEN, published 2025).

Where a chain is given by its changes, count along the chain named. Bounds are passed on as bounds.

The target in assay [1] is T1, Rat TNFα (rat, UniProt P16599 80-235).
T1 sequence (looked up): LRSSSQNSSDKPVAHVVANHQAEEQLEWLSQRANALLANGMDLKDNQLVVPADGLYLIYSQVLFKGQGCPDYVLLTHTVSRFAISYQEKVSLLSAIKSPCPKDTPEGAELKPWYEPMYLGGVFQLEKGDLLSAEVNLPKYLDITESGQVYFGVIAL
Briefly: cross-reactivity binding, B of B/N; - denotes no binding/neutralisation activity observed.

In assay [2] the target is T2, Human TNF-β (human, UniProt P01374 35-205).
T2 construct: also called human TNFB
T2 sequence (looked up): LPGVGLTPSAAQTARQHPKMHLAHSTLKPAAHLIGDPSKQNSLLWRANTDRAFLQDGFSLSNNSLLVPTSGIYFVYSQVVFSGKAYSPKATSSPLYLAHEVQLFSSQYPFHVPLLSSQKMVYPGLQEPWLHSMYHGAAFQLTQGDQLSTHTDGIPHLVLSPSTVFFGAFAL
Described as above.

For assay [3], the target named is Pig TNFα (pig, UniProt P23563 77-232). The description is as above.
Chain of Pig TNFα (P23563 77-232 limits assumed): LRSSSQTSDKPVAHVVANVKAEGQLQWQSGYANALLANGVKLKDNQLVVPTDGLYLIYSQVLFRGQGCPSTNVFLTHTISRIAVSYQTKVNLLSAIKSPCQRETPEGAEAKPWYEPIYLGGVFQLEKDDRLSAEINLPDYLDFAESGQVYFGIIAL
For assay [4], the target named is T3, Rabbit TNFα (rabbit, UniProt P04924 80-235, limits assumed).
T3 sequence (looked up): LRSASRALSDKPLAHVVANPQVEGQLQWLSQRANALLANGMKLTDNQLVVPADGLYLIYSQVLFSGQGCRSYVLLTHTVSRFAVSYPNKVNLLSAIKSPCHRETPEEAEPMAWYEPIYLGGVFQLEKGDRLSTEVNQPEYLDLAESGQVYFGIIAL
Described as above.

In assay [5] the target is T4, Mouse TNF-alpha (mouse, UniProt P06804 80-235).
T4 construct: also called mouse TNFα
T4 sequence (looked up): T1 sequence (looked up) with A22V, I58V, S91N, I96V, M117I, L130Q, I143F, T144A
The assay is described as above.

Assay [6] has as its target T5, human Tumour Necrosis Factor alpha (human, UniProt P01375 77-233).
T5 construct: Amine-coupled to the chip for BIAcore, biotinylated on streptavidin sensors for Octet, coated at 1 µg/ml for ELISA; also called hTNFα; rhTNFα
Nature of the assay: BLI, Octet RED96, biotinylated hTNF-α on streptavidin sensors, top concentration 1 µM.

In assay [7] the target is T5, human Tumour Necrosis Factor alpha. Briefly: kinetics on hTNFα; instrument (BIAcore T200 or Octet) not stated for this column.
Assay [8] shares this target. Briefly: binding ELISA on 1 µg/ml hTNF-α, absorbance at 450 nm. Background: An ELISA detects its analyte on a solid surface through an enzyme-linked reagent.
The target in assay [9] is T6, mouse ICOS ligand (mouse, UniProt Q9JHJ8 47-279, limits assumed).
T6 construct: it may be the same Fc chimera as m48; also called mICOSL
T6 sequence (looked up): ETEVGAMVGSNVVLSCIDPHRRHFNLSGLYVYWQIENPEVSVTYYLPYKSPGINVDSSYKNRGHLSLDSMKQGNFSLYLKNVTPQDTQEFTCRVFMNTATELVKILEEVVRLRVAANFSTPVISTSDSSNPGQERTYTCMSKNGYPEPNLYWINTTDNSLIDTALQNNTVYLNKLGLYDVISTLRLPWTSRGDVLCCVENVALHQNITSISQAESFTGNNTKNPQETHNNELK
Briefly: mICOSL neutralisation assay (lower right panel): blocking of mICOSL binding to its CHO-expressed receptor, absorbance at 450 nm.

The target in assay [10] is T5, human Tumour Necrosis Factor alpha. Nature of the assay: binding ELISA on human TNF-alpha, OD 450.
Assay [11] has as its target T7, human serum albumin (human, UniProt P02768 25-609).
T7 construct: also called HSA
Nature of the assay: binding ELISA on human serum albumin (HSA), OD 450.

Assay [12] concerns the target T5, human Tumour Necrosis Factor alpha. Briefly: binding ELISA on TNFα (Anti-TNF NAR Dimers Binding ELISA, post dialysis), absorbance at 450 nm.
Assay [13] has as its target T8, human ICOS ligand (human, UniProt O75144 19-258, limits assumed).
T8 construct: also called hICOSL
T8 sequence (looked up): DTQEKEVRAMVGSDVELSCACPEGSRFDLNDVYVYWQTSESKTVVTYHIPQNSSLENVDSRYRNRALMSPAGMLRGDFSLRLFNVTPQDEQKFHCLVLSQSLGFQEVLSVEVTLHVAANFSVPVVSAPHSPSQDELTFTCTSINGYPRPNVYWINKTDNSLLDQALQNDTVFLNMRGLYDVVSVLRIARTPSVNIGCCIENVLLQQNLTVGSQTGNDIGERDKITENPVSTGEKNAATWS
Nature of the assay: hICOSL neutralisation assay (lower left panel): blocking of hICOSL binding to its CHO-expressed receptor, absorbance at 450 nm.

T5 sequence (P01375 77-233 limits assumed): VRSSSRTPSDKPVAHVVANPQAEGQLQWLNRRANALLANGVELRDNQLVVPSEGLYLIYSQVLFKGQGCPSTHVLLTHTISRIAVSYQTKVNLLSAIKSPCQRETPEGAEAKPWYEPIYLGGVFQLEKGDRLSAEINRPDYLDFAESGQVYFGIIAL

B1: TNF VNAR D1 (VNAR)
VNAR: ARVDQTPQTITKETGESLTINCVLRDSHCATSSTYWYRKKSGSTNEESISKGGRYVETVNSGSKSFSLRINDLTVEDSGTYRCASECQYGLAEYDVYGGGTVVTVNA
notes: Nurse shark VNAR single domain; also called VNAR D1 (wt); VNAR anti-hTNFa-D1
For the molecule B1, the binding result in assay [1], in [2], in [3], in assay [4] and in assay [5] was “no binding” in each case.

B2: BB10 (VNAR)
VNAR: TRVDQSPSSLSASVGDRVTITCVLTDTSYPLYSTYWYRKNPGSSNKEQISISGRYSESVNKGTKSFTLTISSLQPEDFATYYCRAMGTNFWTGDGAGTKVEIK
As to B2, the Kd – broadly, the equilibrium constant for the complex coming apart – in assay [6] was above 1000 nM.

B3: TNF VNAR D1-BA11-B4 (VNAR)
chain: ARVDQTPQTITKETGESLTINCVLRDSHCATSSTYWYRKKSGSTNEESISKGGRYVETVNSGSKSFSLRINDLTVEDSGTYRCASECQYGLAEYDVYGGGTVVTVNGGGGSGGGGSGGGGSGGGGSGAHSTRVDQSPSSLSASVGDRVTITCVLTDTSYPLYSTYWYRKNPGSSNKEQISISGRYSESVNKGTKSFTLTISSLQPEDSATYYCRAMSTNIWTGDGAGTKVEIKGGGGSGGGGSGGGGSGGGGSGAHSARVDQTPQTITKETGESLTINCVLRDSNCALSSMYWYRKKSGSTNEESISKGGRYVETVNSGSKSFSLRINDLTVEDSGTYRCKVYIPCIDELVYMISGGTSGPIHDVYGGGTVVTVNHHHHHHHEQKLISEEDL
notes: Tandem VNAR trimer with anti-HSA BA11 in the middle, His and Myc tags
Take B3: the koff (as a rule, the rate constant with which the complex falls apart) in assay [7] is around 0.0006 s⁻¹.

B4: SoloMER™ VNAR D1-v4 (VNAR)
VNAR: ARVDQSPSSLSASVGDRVTITCVLRDSHCATSSTYWYRKKPGSTNEESISKGGRFSGSGSSGSKSFTLTISSLQPEDFATYYCASECQYGLAEYDVFGQGTKVEIKH
notes: Humanised D1 with His tag
Turning to B4, the 50% effective concentration (EC50 (read off the curve)) (usually the midpoint of the concentration-response curve) in [8] was around 0.1 µg/mL.

B5: VNAR-TNFR1 Fc bi-functional construct, Format 2: anti-mICOSL VNAR (CC3) (Fc fusion)
chain: TRVDQTPRTATKETGESLTINCVLTDTEYGLFSTSWFRKNPGTTDWERMSIGGRYVESVNKGAKSFSLRIKDLTVADSATYYCKALGWWPPAFPHWYDGAGTVLTVN
As to B5, the “IC50 (read off the curve)” value in assay [9] was around 0.2 µg/mL.

B6: TNF S17-Quad-X™ (Fc fusion)
chain: ASVNQTPRTATKETGESLTINCVLTDTHAKVFTTSWFRKNPGTTDWERMSIGGRYVESVNKGAKSFSLRIKDLTVADSATYICRAGGYLSQPRVYWDVYGAGTVLTVNGGGGSGGGGRTEPRGPTIKPCPPCKCPAPNLLGGPSVFIFPPKIKDVLMISLSPIVTCVVVDVSEDDPDVQISWFVNNVEVHTAQTQTHREDYNSTLRVVSALPIQHQDWMSGKEFKCKVNNKDLPAPIERTISKPKGSVRAPQVYVLPPPEEEMTKKQVTLTCMVTDFMPEDIYVEWTNNGKTELNYKNTEPVLDSDGSYFMYSKLRVEKKNWVERNSYSCSVVHEGLHNHHTTKSFSRTPGKGGGGSGGGGSGGGGSGGGGSGAHSASVNQTPRTATKETGESLTINCVLTDTHAKVFTTSWFRKNPGTTDWERMSIGGRYVESVNKGAKSFSLRIKDLTVADSATYICRAGGYLSQPRVYWDVYGAGTVLTVN
notes: S17, mouse IgG2a Fc and S17 in one chain; also called S17-Fc-S17; S17-Fc-S17 (Quad-X™)
As to B6, the binding result in assay [10] and in assay [11] was “no binding (tested: 5 µg/ml)” in each case.

B7: TNF VNAR DIMER D1-D1 (VNAR)
chain: ARVDQTPQTITKETGESLTINCVLRDSHCATSSTYWYRKKSGSTNEESISKGGRYVETVNSGSKSFSLRINDLTVEDSGTYRCASECQYGLAEYDVYGGGTVVTVNGGGGSGGGGGSGAHSARVDQTPQTITKETGESLTINCVLRDSHCATSSTYWYRKKSGSTNEESISKGGRYVETVNSGSKSFSLRINDLTVEDSGTYRCASECQYGLAEYDVYGGGTVVTVNAAAHHHHHHGAAESKLISEEDL
In the case of B7, the 50% effective concentration (EC50 (read off the curve)) in assay [12] is around 0.009 µg/mL.

B8: VNAR-TNFR1 Fc bi-functional construct, Format 4: anti-hICOSL VNAR (2D4) (Fc fusion)
chain: TRVDQTPRTATKETGESLTINCVLTDTDYGLFSTSWFRKNPGTTDWERMSIGGRYVESVNKGAKSFSLRIKDLTVADSATYYCKAFTWPWEWPDRWFRPWYDGAGTVLTVN
B8: the “IC50 (read off the curve)” value in [13] was around 0.4 µg/mL.
